Experimental findings from the RNAGym collection of RNA variant scans (doi:10.7554/elife.80360) are described below.

B1: Twister Ribozyme (parent)
chain: AACACUGCCAAUGCCGGUCCCAAGCCCGGAUAAAAGUGGAGGGGGCGG

The series covers variants of B1. Put plainly: self-cleavage, relative activity (ratio to wild type); higher = more cleavage; co-transcriptional.
In the case of G24U G29C, the self-cleavage is 0.0648.
Under A35U C46U stands 0.894.
Under A35U C46A stands 1.04.
In the case of A4G C5G, the self-cleavage was 0.274.
With G16C U18G, the self-cleavage came to 0.116.
Next, G42C G43A: 0.139.
Regarding G13U G29U, the self-cleavage was 0.588.
Take G7A G24C: the self-cleavage amounted to 0.0973.
With C14U A40C, the self-cleavage stood at 0.256.
Regarding A1U A40U, the self-cleavage was 0.0682.
Next, A34U G38A: 0.654; C21G G41C: 0.577; U6A U18C: 0.208.
For the variant G7A A34G, the self-cleavage amounted to 0.111.
Under G36U G38A stands 0.452; under G13C G39C, 0.117; under C26G G41C, 0.0955.
Take G16A C25A: the self-cleavage stood at 0.117.
As for U12C A22G, the self-cleavage came to 0.307.
C14A A23C: the self-cleavage was 0.348.
As to U31G G43C, the self-cleavage came to 0.18.
Under A32C G47C stands 0.556; under C21U G28A, 0.102.
For the variant C20G G48U, the self-cleavage was found to be 0.12.
G13U G45U: the self-cleavage was determined as 0.212.
Under C21U G24A stands 0.102; under C8U U37G, 0.382; under G17C U31C, 0.115.
For C9U C14U, the self-cleavage came out at 0.596.
As for A4G G24U, the self-cleavage came to 0.12.
Next, U31G A40U: 0.199; C3G G7A: 0.0769; A4G A10G: 0.892.
Consider C27A A40G, for which the self-cleavage stood at 0.145.
Next, G7U G48C: 0.123; A4U G28U: 0.116.
In the case of A23C A32G, the self-cleavage was 0.187.
As to G7C G45A, the self-cleavage worked out at 0.0964.
In the case of G17A C46A, the self-cleavage came to 0.322.
Under A1C C9A stands 0.221.
Take A34C A35C: the self-cleavage came out at 0.694.
Turning to A30G G44U, the self-cleavage came to 0.887.
Under G17C G39C stands 0.0888.
In the case of A4G U31C, the self-cleavage was found to be 0.886.
On to C20G G36A, for which the self-cleavage came to 0.0839.
In the case of G28C C46G, the self-cleavage was 0.565.
For C8U C9G, the self-cleavage was 0.158.
As to A23U A35U, the self-cleavage turned out to be 0.614.
G17U G39C: the self-cleavage was found to be 0.0939.
Next, C21G A30U: 0.0816.
Consider C8A A22C, for which the self-cleavage was found to be 0.45.
As for U12G A23U, the self-cleavage stood at 0.566.
Consider U31C A34G, for which the self-cleavage was 0.664.
For G28U A33G, the self-cleavage is 0.979.
As to G41U G44U, the self-cleavage amounted to 0.193.
Regarding C25A A33G, the self-cleavage worked out at 0.079.
On to U31C C46G, for which the self-cleavage is 0.923.
Consider A10G A33C, for which the self-cleavage turned out to be 1.03.
Turning to C15U G24U, the self-cleavage was found to be 0.122.
For C20U G39A, the self-cleavage was found to be 0.288.
A11G C26U: the self-cleavage worked out at 0.466.
For the variant C21U A22U, the self-cleavage came out at 0.072.
Next, A32U G44A: 0.919; C9U A23U: 0.0746; G38U G48A: 0.854.
A35U: the self-cleavage was 0.969.
Under C20A G38C stands 0.0639.
Turning to C3U A40G, the self-cleavage amounted to 0.0544.
Regarding A23G G42A, the self-cleavage amounted to 0.128.
Next, C21A U37G: 0.0471; C14G A40C: 0.067.
Turning to A11G A23G, the self-cleavage was 0.447.
In the case of C8A G48A, the self-cleavage turned out to be 0.215.
A10G G36C: the self-cleavage turned out to be 0.855.
In the case of C8A C9A, the self-cleavage is 0.0842.
Take A1U C26U: the self-cleavage was 0.0863.
C15U G39U: the self-cleavage amounted to 0.27.
Take C27G G47U: the self-cleavage amounted to 0.0917.
On to A23G C27G, for which the self-cleavage is 0.0997.
On to A2U G28U, for which the self-cleavage is 0.519.
A33G A35C: the self-cleavage is 0.858.
For G7U G28C, the self-cleavage was found to be 0.0665.
On to C9G C19G, for which the self-cleavage is 0.073.
On to C21A G47C, for which the self-cleavage is 0.0714.
Turning to A34C A40U, the self-cleavage turned out to be 0.0943.
Next, G24A G39C: 0.0986; U31A A33G: 0.82.
As for G29A G39U, the self-cleavage worked out at 0.232.
In the case of G41U C46A, the self-cleavage stood at 0.512.
With U31G A33U, the self-cleavage turned out to be 0.876.
Under C9A A34C stands 0.18; under G36A C46G, 0.7.
Consider G13C G17A, for which the self-cleavage was found to be 0.0829.
As for G39A G41U, the self-cleavage was 0.125.
Take A10G C21U: the self-cleavage is 0.162.
Take A22U A35U: the self-cleavage amounted to 0.659.
As for C14G G24U, the self-cleavage is 0.0521.
Next, C14G G24A: 0.0254; G41U G42C: 0.164; A11G C20A: 0.117.
Regarding C14U C25A, the self-cleavage worked out at 0.27.
For C14U C25U, the self-cleavage was 0.909.
C20G G42C: the self-cleavage came out at 0.791.
As to A4C A23G, the self-cleavage turned out to be 0.0448.
Next, A4G G48U: 0.979; U31A G44C: 0.711; A32U G45A: 0.823.
With G39A G48U, the self-cleavage was 0.517.
On to A1G C21G, for which the self-cleavage stood at 0.0325.
For the variant A1G G24A, the self-cleavage worked out at 0.144.
Take U12G A34U: the self-cleavage was 0.701.
Take A23C G42A: the self-cleavage was 0.113.
Turning to G16C G36A, the self-cleavage stood at 0.188.
Turning to C25A G43U, the self-cleavage amounted to 0.0941.
C46U G48C: the self-cleavage turned out to be 1.1.
Take C3G G45U: the self-cleavage is 0.31.
For the variant A2U A4U, the self-cleavage was found to be 0.0802.
In the case of G16U A35G, the self-cleavage turned out to be 0.765.
Next, C25G U31A: 0.482; A4C A22U: 0.0826; A4C C9A: 0.114.
With G39C G47A, the self-cleavage is 0.152.
Regarding C19U G48A, the self-cleavage is 0.915.
Regarding C27A G38U, the self-cleavage worked out at 0.33.
On to U37C C46A, for which the self-cleavage is 0.71.
Next, A1G A35C: 0.359; C20G A32U: 0.0524; C5A G43A: 0.1.
Regarding A22C U37G, the self-cleavage is 0.631.
Under A30G A33U stands 0.919; under C21U G36C, 0.0754.
C26U U37G: the self-cleavage was determined as 0.118.
Consider A22G A32G, for which the self-cleavage was 0.25.
For the variant A23C G28A, the self-cleavage was found to be 0.225.
As to C19G G39U, the self-cleavage was 0.118.
In the case of A23G G39U, the self-cleavage came out at 0.142.
For G44U G47A, the self-cleavage came to 0.758.
With A11C G41A, the self-cleavage is 0.336.
Next, C21G A40G: 0.0831; C26A: 0.706; A22C G24C: 0.0817.
Turning to A2C C19G, the self-cleavage was 0.0832.
U31C G43A: the self-cleavage amounted to 0.323.
With A22G G47C, the self-cleavage was found to be 0.128.
Next, C8U A22G: 0.1; C20U G44U: 0.893.
Regarding G17C G41A, the self-cleavage worked out at 0.0738.
Take A10G G48C: the self-cleavage was found to be 1.2.
Take U6C G29C: the self-cleavage worked out at 0.173.
On to C3U G41U, for which the self-cleavage came out at 0.14.
For C8G G45U, the self-cleavage was determined as 0.183.
Take A1C A11U: the self-cleavage turned out to be 0.176.
Under U12A G13C stands 0.811.
For G7A G28A, the self-cleavage worked out at 0.215.
Regarding C5G G44U, the self-cleavage amounted to 0.646.
As to A4G A22G, the self-cleavage turned out to be 0.0987.
Turning to G17C A34C, the self-cleavage is 0.0523.
On to A23C C26A, for which the self-cleavage was determined as 0.199.
With C14U G45C, the self-cleavage worked out at 0.713.
Take G38A G43A: the self-cleavage turned out to be 0.19.
Under C8G A35U stands 0.566; under U12A G42U, 0.427.
Consider G16C C19G, for which the self-cleavage turned out to be 0.1.
For C19U C25U, the self-cleavage was 0.623.
Next, C20A G39C: 0.0811; G17A C21A: 0.101; C20G G24A: 0.109.
